According to patent US6417328B1, “Trail receptors, nucleic acids encoding the same, and methods of use thereof” (Thomas Jefferson Univeristy, priority 1997, dated 2002):
Residues, ends and D or L forms follow the SMILES beside them. *: point of attachment. Cbz = O=C(OCc1ccccc1)*; CH2F = FC*

What was measured:
Type in all cases: cell-based, human
[1] = system: DR5-induced apoptosis in MCF7 cells; test: Inhibition of DR5-induced apoptosis in transfected MCF7 cells
Description: (§1) For apoptosis assays the mammalian double expression vector pRSC (Akporiaye E. T. et al. (1997) BioTech. 22, 68) was used, which allows for expression of lacZ under the RSV promoter and the test cDNA (DR4, DR4A, DR5, DR5A, TRAIL-R3) under the CMV promoter. CrmA, FLAME-1, caspase-8-DN (C345A) or caspase-10-DN (C358A) (Alnemnri E. S. et al. (1997) J. Biol. Chem. 272, 18542-18545) were expressed using pcDNA3 (Invitrogen).
(§2) FIG. 3 illustrates that expression of DR5 but not TRAIL-R3 induces apoptosis in human cells. MCF7 (FIG. 3A) and 293 (FIG. 3B) cells were transfected with the indicated pRSC-lacZ constructs. Thirty hours after transfection cells were stained with Pgal and examined for morphological signs of apoptosis. The graphs show the percentage of round blue apoptotic cells (mean +SD) as a function of total blue cells under each condition (≧23).
(§3) MCF7 cells were transfected with DR4 or DR5 expression constructs in the presence of z-VAD-fmk (20 μM) or co-transfected with a four-fold excess of a CrmA, caspase-8-DN, caspase-10-DN or FLAME-1 construct or an empty vector. The data are represented as in FIGS. 3A and 3B.

[2] = system: DR4-induced apoptosis in MCF7 cells; test: Inhibition of DR4-induced apoptosis in transfected MCF7 cells
Description: as §1, §2, §3

apoptosis by TRAIL = test: Inhibition of apoptosis by TRAIL (FIG. 3F)
apoptosis by TNF-α = test: Inhibition of apoptosis by TNF-α (FIG. 3F)
MCF7 cells [3] = test: Blocking of TRAIL-induced apoptosis in MCF7 cells; settings: MCF7 cells transfected 36 h, then soluble TRAIL 250 ng/ml for 8 h (FIG. 3C)
Procedure: Cells were stained 8 hours later with propidium iodide and the nuclei were examined by fluorescence microscopy.
MCF7 cells were transfected with TRAIL-R3 or vector alone for 36 h, then treated with soluble TRAIL (250 ng/ml) for 8 h. The data are represented as in FIGS. 3A and 3B, after subtracting the background killing (12-15%) as a result of transfection.

MCF7 cells [4] = test: Apoptosis induction by transient expression in MCF7 cells; settings: pRSC-lacZ constructs, thirty hours after transfection (FIG. 3A)
Description: as §1, §2

293 cells = test: Apoptosis induction by transient expression in 293 cells; settings: pRSC-lacZ constructs, thirty hours after transfection (FIG. 3B)
Description: as §1, §2

[5] = MCF7 cells co-transfected with four-fold excess of inhibitor construct (FIG. 3D, 3E)

Question: For `COC(=O)C[C@H](NC(=O)[C@H](C)NC(=O)[C@@H](NC(=O)OCc1ccccc1)C(C)C)C(=O)CF` [z-VAD-fmk, reference compound] (Cbz-Val-Ala-Asp(OMe)-CH2F), which “Inhibition of DR5-induced apoptosis” value ([1]; MCF7 cells transfected with DR5 construct in the presence of inhibitor 20 μM (FIG. 3D)) is on record?
Answer: efficiently blocked

Question: What about the “Inhibition of DR4-induced apoptosis” value ([2]; MCF7 cells transfected with DR4 construct in the presence of inhibitor 20 μM (FIG. 3D)) of the same molecule?
Answer: inhibited

Question: With “DR5s: alternatively spliced isoform of DR5, 350 amino acids (SEQ ID NO:6), truncated death domain” as the molecule, how does the “Inhibition of apoptosis by TRAIL” value (apoptosis by TRAIL) read?
Answer: substantially inhibits

Question: And the “Inhibition of apoptosis by TNF-α” value (apoptosis by TNF-α)?
Answer: not

B1: TRAIL-R3: human TRAIL receptor protein of 299 amino acids (SEQ ID NO:4) without cytoplasmic domain (protein, listed as Homo sapiens)
chain: MQGVKERFLPLGNSGDRAPRPPDGRGRVRPRTQDGVGNHTMARIPKTLKFVVVIVAVLLPVLAYSATTARQEEVPQQTVAPQQQRHSFKGEECPAGSHRSEHTGACNPCTEGVDYTNASNNEPSCFPCTVCKSDQKHKSSCTMTRDTVCQCKEGTFRNENSPEMCRKCSRCPSGEVQVSNCTSWDDIQCVEEFGANATVETPAAEETMNTSPGTPAPAAEETMNTSPGTPAPAAEETMTTSPGTPAPAAEETMTTSPGTPAPAAEETMTTSPGTPASSHYLSCTIVGIIVLIVLLIVFV
Question: For B1, which “Blocking of TRAIL-induced apoptosis by transient (ectopic) expression” value (MCF7 cells [3]) is on record?
Answer: significantly blocked

Question: And the “Induction of apoptosis by transient expression” value (MCF7 cells [4])?
Answer: incapable of inducing apoptosis

Question: What about the “Induction of apoptosis by transient expression” value (293 cells) of the same molecule?
Answer: incapable of inducing apoptosis

B2: DR5: human TRAIL receptor protein of 411 amino acids (SEQ ID NO:2) with cytoplasmic death domain (protein, listed as Homo sapiens)
chain: MEQRGQNAPAASGARKRHGPGPREARGARPGLRVPKTLVLVVAAVLLLVSAESALITQQDLAPQQRVAPQQKRSSPSEGLCPPGHHISEDGRDCISCKYGQDYSTHWNDLLFCLRCTRCDSGEVELSPCTTTRNTVCQCEEGTFREEDSPEMCRKCRTGCPRGMVKVGDCTPWSDIECVHKESGIIIGVTVAAVVLIVAVFVCKSLLWKKVLPYLKGICSGGGGDPERVDRSSQRPGAEDNVLNEIVSILQPTQVPEQEMEVQEPAEPTGVNMLSPGESEHLLEPAEAERSQRRRLLVPANEGDPTETLRQCFDDFADLVPFDSWEPLMRKLGLMDNEIKVAKAEAAGHRDTLYTMLIKWVNKTGRDASVHTLLDALETLGERLAKQKIEDHLLSSGKFMYLEGNADSAMS
Question: Which results are given for B2?
Answer: Induction of apoptosis by transient expression (MCF7 cells [4]): triggers apoptosis; Induction of apoptosis by transient expression (293 cells): triggers apoptosis

B3: caspase-8-DN: dominant negative inhibitor caspase-8 (C345A), expressed using pcDNA3 (protein, UniProt Q14790 1-479, looked up, variant C345A)
chain: MDFSRNLYDIGEQLDSEDLASLKFLSLDYIPQRKQEPIKDALMLFQRLQEKRMLEESNLSFLKELLFRINRLDLLITYLNTRKEEMERELQTPGRAQISAYRVMLYQISEEVSRSELRSFKFLLQEEISKCKLDDDMNLLDIFIEMEKRVILGEGKLDILKRVCAQINKSLLKIINDYEEFSKERSSSLEGSPDEFSNGEELCGVMTISDSPREQDSESQTLDKVYQMKSKPRGYCLIINNHNFAKAREKVPKLHSIRDRNGTHLDAGALTTTFEELHFEIKPHDDCTVEQIYEILKIYQLMDHSNMDCFICCILSHGDKGIIYGTDGQEAPIYELTSQFTGLKAPSLAGKPKVFFIQACQGDNYQKGIPVETDSEEQPYLEMDLSSPQTRYIPDEADFLLGMATVNNCVSYRNPAEGTWYIQSLCQSLRERCPRGDDILTILTEVNYEVSNKDDKKNMGKQMPQPTFTLRKKLVFPSD
Question: How did the “Inhibition of DR5-induced apoptosis” value [1, 5] turn out when B3 was run?
Answer: significantly inhibited

Question: And the “Inhibition of DR4-induced apoptosis” value [2, 5]?
Answer: significantly inhibited
